Source: patent US20240116985A1 (published 2024)
Starred links: 1 amine or outer side, 2 acyl side, 3 side chain; linkers in the order of their positions; H or OH if unused. Positions of bridges follow the written chain, without caps; N, C: chain ends. Non-standard residues stand in square brackets, D forms with d. Primed or numbered codes have the meaning given here. B5(17) = 2,2-bis(4-pentenyl)glycine = 2-amino-2-(pent-4-en-1-yl)hept-6-enoic acid, stitching residue, C=CCCCC(CCCC=C)(N[*:1])C(=O)[*:2]; B5(4) = 2,2-bis(4-pentenyl)glycine = 2-amino-2-(pent-4-en-1-yl)hept-6-enoic acid (stitching residue), C=CCCCC(CCCC=C)(N[*:1])C(=O)[*:2]; B5(5) = 2,2-bis(4-pentenyl)glycine, 2-amino-2-(pent-4-en-1-yl)hept-6-enoic acid (stitching residue), C=CCCCC(CCCC=C)(N[*:1])C(=O)[*:2]; B5(21) = 2-amino-2-(pent-4-en-1-yl)hept-6-enoic acid, bis(4-pentenyl)glycine (stitching residue), C=CCCCC(CCCC=C)(N[*:1])C(=O)[*:2]; (NHCyBu)AsnR = N4-cyclobutyl-L-asparagine, O=C(C[C@H](N[*:1])C(=O)[*:2])NC1CCC1; (NHCyPr)AsnR = N4-cyclopropyl-L-asparagine, O=C(C[C@H](N[*:1])C(=O)[*:2])NC1CC1; (NHnPr)AsnR = N4-propyl-L-asparagine, CCCNC(=O)C[C@H](N[*:1])C(=O)[*:2]; (NHMe)AsnR = N4-methyl-L-asparagine, CNC(=O)C[C@H](N[*:1])C(=O)[*:2]; TOMe = O-methyl-L-threonine, CO[C@H](C)[C@H](N[*:1])C(=O)[*:2]; Phe(3-CF3) = N[C@@H](Cc1cccc(C(F)(F)F)c1)C(=O)O; Bta = N[C@@H](Cc1csc2ccccc12)C(=O)O; αAllylPro = C=CC[C@@]1(C(=O)O)CCCN1; S8 = C=CCCCCCC[C@](C)(N)C(=O)O

T1: full-length beta-Catenin (Uniprot ID P35222) (Homo sapiens (Human), UniProt P35222 1-781)
T1 construct: also called bCat; B-Catenin
T1 sequence: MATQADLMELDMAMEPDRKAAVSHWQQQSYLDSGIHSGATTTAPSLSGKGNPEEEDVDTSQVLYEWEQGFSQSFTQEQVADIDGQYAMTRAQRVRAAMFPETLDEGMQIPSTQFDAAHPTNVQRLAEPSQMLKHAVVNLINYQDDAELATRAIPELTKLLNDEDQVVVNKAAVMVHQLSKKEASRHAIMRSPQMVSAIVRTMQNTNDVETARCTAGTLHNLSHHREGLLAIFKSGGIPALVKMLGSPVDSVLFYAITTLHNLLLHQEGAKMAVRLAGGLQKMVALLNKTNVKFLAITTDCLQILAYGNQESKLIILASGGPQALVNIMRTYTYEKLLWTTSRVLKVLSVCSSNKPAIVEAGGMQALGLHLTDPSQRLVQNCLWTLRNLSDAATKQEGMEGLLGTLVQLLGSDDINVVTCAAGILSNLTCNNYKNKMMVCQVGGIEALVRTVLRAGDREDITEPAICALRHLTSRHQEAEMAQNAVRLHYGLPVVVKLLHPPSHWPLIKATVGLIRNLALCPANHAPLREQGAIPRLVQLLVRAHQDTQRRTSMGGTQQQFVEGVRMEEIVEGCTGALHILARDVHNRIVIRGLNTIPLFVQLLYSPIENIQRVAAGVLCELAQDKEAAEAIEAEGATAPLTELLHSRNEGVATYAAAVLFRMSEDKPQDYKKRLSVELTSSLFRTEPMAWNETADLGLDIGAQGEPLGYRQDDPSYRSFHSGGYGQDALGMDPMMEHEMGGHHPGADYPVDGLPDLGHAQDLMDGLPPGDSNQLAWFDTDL

T2: full-length beta-Catenin (Uniprot ID P35222) (Homo sapiens (Human), UniProt P35222 1-781)
T2 construct: also called bCat; B-Catenin
T2 sequence: T1 sequence

B1: I-542 (peptide)
peptide: XDTXDEAAFQXFXQ
modifications: not fully specified; Ac-PL3-Asp-TOMe-B5-Asp-Glu-Ala-Ala-Phe-Gln-S8-Phe-BztA-Gln-NH2; N-terminal acetyl, C-terminal amide; non-natural: PL3(1), TOMe(3), B5(4), S8(11), BztA(13); staples PL3(1)-B5(4) and B5(4)-S8(11)
B2: I-563 (peptide)
peptide: XDLXDDAAFNXFXQ
modifications: not fully specified; Ac-PL3-Asp-Leu-B5-Asp-Asp-Ala-Ala-Phe-Asn-S8-Phe-BztA-Gln-NH2; N-terminal acetyl, C-terminal amide; non-natural: PL3(1), B5(4), S8(11), BztA(13); staples PL3(1)-B5(4) and B5(4)-S8(11)
B3: I-554 (peptide)
peptide: XDIXDDAAFNXFXH
modifications: not fully specified; Ac-PL3-Asp-Ile-B5-Asp-Asp-Ala-Ala-Phe-Asn-S8-2OMeF-BztA-His-NH2; N-terminal acetyl, C-terminal amide; non-natural: PL3(1), B5(4), S8(11), 2OMeF(12), BztA(13); staples PL3(1)-B5(4) and B5(4)-S8(11)
B4: I-561 (peptide)
peptide: XDLXDDAAFQXFXH
modifications: not fully specified; Ac-PL3-Asp-Leu-B5-Asp-Asp-Ala-Ala-Phe-Gln-S8-Phe-BztA-His-NH2; N-terminal acetyl, C-terminal amide; non-natural: PL3(1), B5(4), S8(11), BztA(13); staples PL3(1)-B5(4) and B5(4)-S8(11)
B5: I-549 (peptide)
peptide: XDIXDDAAFNXFXQ
modifications: not fully specified; Ac-PL3-Asp-Ile-B5-Asp-Asp-Ala-Ala-Phe-Asn-S8-2OMeF-BztA-Gln-NH2; N-terminal acetyl, C-terminal amide; non-natural: PL3(1), B5(4), S8(11), 2OMeF(12), BztA(13); staples PL3(1)-B5(4) and B5(4)-S8(11)
B6: I-550 (peptide)
peptide: XDIXDDAAFNXFXQ
modifications: not fully specified; Ac-PL3-Asp-Ile-B5-Asp-Asp-Ala-Ala-Phe-Asn-S8-2OMeF-BztA-Gln-NH2; N-terminal acetyl, C-terminal amide; non-natural: PL3(1), B5(4), S8(11), 2OMeF(12), BztA(13); staples PL3(1)-B5(4) and B5(4)-S8(11)
B7: I-566 (peptide)
peptide: XDVXDDAAFNXFXQ
modifications: not fully specified; Ac-PL3-Asp-Val-B5-Asp-Asp-Ala-Ala-Phe-Asn-S8-Phe-BztA-Gln-NH2; N-terminal acetyl, C-terminal amide; non-natural: PL3(1), B5(4), S8(11), BztA(13); staples PL3(1)-B5(4) and B5(4)-S8(11)
B8: I-559 (peptide)
peptide: XDLXDDAAFQXFXQ
modifications: not fully specified; Ac-PL3-Asp-Leu-B5-Asp-Asp-Ala-Ala-Phe-Gln-S8-Phe-BztA-Gln-NH2; N-terminal acetyl, C-terminal amide; non-natural: PL3(1), B5(4), S8(11), BztA(13); staples PL3(1)-B5(4) and B5(4)-S8(11)
B9: I-558 (peptide)
peptide: XDLXDDAAFQXFXQ
modifications: not fully specified; Ac-PL3-Asp-Leu-B5-Asp-Asp-Ala-Ala-Phe-Gln-S8-Phe-BztA-Gln-NH2; N-terminal acetyl, C-terminal amide; non-natural: PL3(1), B5(4), S8(11), BztA(13); staples PL3(1)-B5(4) and B5(4)-S8(11)
B10: I-553 (peptide)
peptide: XDIXDDAAFNXFXH
modifications: not fully specified; Ac-PL3-Asp-Ile-B5-Asp-Asp-Ala-Ala-Phe-Asn-S8-2OMeF-BztA-His-NH2; N-terminal acetyl, C-terminal amide; non-natural: PL3(1), B5(4), S8(11), 2OMeF(12), BztA(13); staples PL3(1)-B5(4) and B5(4)-S8(11)
B11: I-565 (peptide)
peptide: XDLXDDAAFNXFXH
modifications: not fully specified; Ac-PL3-Asp-Leu-B5-Asp-Asp-Ala-Ala-Phe-Asn-S8-Phe-BztA-His-NH2; N-terminal acetyl, C-terminal amide; non-natural: PL3(1), B5(4), S8(11), BztA(13); staples PL3(1)-B5(4) and B5(4)-S8(11)
B12: I-373 (peptide)
peptide: Ac-[αAllylPro]DA[B5(4)]DDAA[Phe(3-CF3)]V[S8]F[Bta]Q-NH2
modifications: staple 1-4, 4-11
notes: Stapled peptide composition (olefin metathesis)

Each binder was assayed against T1, full-length beta-Catenin (Uniprot ID …) (assay: fluorescence polarization competition; displacement of 5FAM-TCF4(10-53) from full-length beta-catenin).
Method: (§1) The plate was incubated protected from light for 60 minutes at 20° C. prior to read. Reads were performed on a CLARIOstar plate reader (BMG Labtech) in duplicate, and data were fitted to a 1:1 binding model with hill slope using an in-house script. All provided concentrations are final concentrations.

Row | EC50 [nM] | Binder
1 | 5000 | Ac-[αAllylPro]DA[B5(21)][(NHnPr)AsnR]DAAFV[S8]F[Bta]Q-NH2 (staple 1-4, 4-11, Stapled (stitched) peptide composition) [I-537]
2 | 5000 | Ac-[αAllylPro]DA[B5(21)][(NHMe)AsnR]DAAFV[S8]F[Bta]Q-NH2 (staple 1-4, 4-11, Stapled (stitched) peptide composition) [I-540]
3 | 5000 | Ac-[αAllylPro]DA[B5(21)][(NHCyPr)AsnR]DAAFV[S8]F[Bta]Q-NH2 (staple 1-4, 4-11, Stapled (stitched) peptide composition) [I-538]
4 | 180 | Ac-[αAllylPro]D[TOMe][B5(21)]DEAAFQ[S8]F[Bta]Q-NH2 (staple 1-4, 4-11) [I-541]
5 | 5000 | Ac-[αAllylPro]DA[B5(21)][(NHCyBu)AsnR]DAAFV[S8]F[Bta]Q-NH2 (staple 1-4, 4-11, Stapled (stitched) peptide composition) [I-539]
6 | 109 | B1
7 | 19 | B2
8 | 51 | Ac-[αAllylPro]DL[B5(5)]DDAAFN[S8]F[Bta]Q-NH2 (staple 1-4, 4-11) [I-562]
9 | 36 | Ac-[αAllylPro]DL[B5(5)]DDAAFN[S8]F[Bta]H-NH2 (staple 1-4, 4-11) [I-564]
10 | 27.5 | B3
11 | 32 | Ac-[αAllylPro]DL[B5(4)]DEAAFN[S8]F[Bta]H-NH2 (staple 1-4, 4-11, Stapled (stitched) peptide composition) [I-543]
12 | 34 | B4
13 | 71 | B5
14 | 30 | B6
15 | 76 | B7
16 | 43 | B8
17 | 56 | B9
18 | 61 | B10
19 | 35 | Ac-[αAllylPro]DI[B5(17)]DEAAFN[S8]F[Bta]Q-NH2 (staple 1-4, 4-11, Stapled (stitched) peptide composition) [I-557]
20 | 81 | Ac-[αAllylPro]DL[B5(5)]DDAAFQ[S8]F[Bta]H-NH2 (staple 1-4, 4-11) [I-560]
21 | 13 | B11

The binders below were run against T2, full-length beta-Catenin (Uniprot ID …) (assay: fluorescence polarization competition; 10 nM full-length beta-catenin, competitor 10 nM 5FAM-TCF4(10-53)).
Method: as §1

Row | EC50 [nM] | Binder
22 | 945 | B12
